{"source": "patent US20220409745", "about": "“COMPOSITIONS AND METHODS OF USING ENGINEERED FUSION PROTEINS THAT BIND G4C2 HUMAN REPEATS” (The Regents of the University of California, published 2022)", "key": {"ZFP106 Znf1 (Z1) [1]": {"biological_target": "T1, ZFP106 Znf1 (Z1) (Homo sapiens, UniProt Q9H2Y7 SEQ:1-25)", "T1 sequence (Q9H2Y7 20-44)": "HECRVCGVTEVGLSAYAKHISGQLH", "assay": "EMSA; binds G-q structure", "conditions": "G4"}, "ZFP106 Znf1 (Z1) [2]": {"biological_target": "T1, ZFP106 Znf1 (Z1)", "assay": "EMSA; binds non-G-q structure", "conditions": "non-G4"}}}
{"binder": "GGGGCCGGGGCCGGGGCCGGGGCCGGGGCCGGGGCCGGGGCCGGGGCC (ssRNA)", "note": "[(G4C2)8 RNA G-quadruplex]", "values": [{"measurement": "binding result", "setting": "ZFP106 Znf1 (Z1) [1]", "result": "binds"}]}
{"binder": "GGGGCCGGGGCCGGGGCCGGGGCCGGGGCCGGGGCCGGGGCCGGGGCC (ssRNA)", "note": "[(G4C2)8 RNA non-G-quadruplex]", "values": [{"measurement": "binding result", "setting": "ZFP106 Znf1 (Z1) [2]", "result": "binds"}]}
